The values below are quoted from earlier work in paper PMC10743670.

Like-named read-outs stand apart in the source and are kept apart here.

Data set [1] has as its target T1, Asp85 (UniProt position 98, WARYADWLFTT). As to conditions: ground (unphotolysed) state of bacteriorhodopsin; purple-to-blue transition.
The target of data set [2] is T1, Asp85. Put plainly: other (described only as 'a titration of bacteriorhodopsin'). Particulars: bacteriorhodopsin with the proton release group deprotonated.
Data set [3] deals with Asp85 (UniProt position 98, WAQYADWLFTT). Particulars: ground state of the R82Q mutant.
The target in data set [4] is Asp85 (UniProt position 85, EIRYIDWLVTT). Particulars: ground state.
The next data set concerns the target Asp97 (UniProt position 97, VFRYIDWLLTV). As to conditions: ground state.

As for “Bacteriorhodopsin (bR) (Halobacterium salinarum (printed as Halobacterium halobium))”, the pKa (commonly the pH at which an ionisable group is half protonated) in the data set with Asp85 [1] is “≈2.7”; with Asp85 [2] it was “≈7.5”.

In the case of “Bacteriorhodopsin R82Q mutant (Halobacterium salinarum (printed as Halobacterium halobium); R82Q)”, the pKa result with Asp85 [3] is “≈7.5”.

Consider “Exiguobacterium sibiricum rhodopsin (ESR) (Exiguobacterium sibiricum)”, for which the pKa in the data set with Asp85 [4] was less than 2.

For “Exiguobacterium sibiricum rhodopsin (ESR) H57M mutant (Exiguobacterium sibiricum; H57M)”, in the data set with Asp85 [4], the pKa is on record as 6.3.

As to “Proteorhodopsin (PR) (uncultured marine gamma-proteobacterium (printed as 'marine γ-proteobacteria'))”, in the data set with Asp97, the pKa result was “∼7.0”.
